The test system of data set [1] is HEK293T cells. The data set is described as follows: Optimal copy number of riboswitch, GFP plasmids, fluorescence plate reader. The class given is cell-based. The settings on record: plasmids with 0-4 copies of riboswitch, GFP transgene. How it is done:
The protocol for both assays are outlined in FIGS. 8A and 8B. For determining optimal copy numbers, plasmids containing 0-4 copies of each riboswitch were created with the transgene as green fluorescence protein (GFP) for readout. HEK293T cells were plated in a 12-well plate and on day 2 transfected with 1 μg of each plasmid DNA. On day 3, cells were observed by fluorescent microscopy (excitation 467-498 nm) and fluorescence was quantified using a plate reader (488 nm excitation 520 nm emission).
As depicted in FIG. 9A, L2Bulge18tc riboswitch was one ON-type riboswitch tested. The cells were treated with 0 μM, 25 μM, 50 μM, 75 μM, and 100 µM of tetracycline (ligand), with the fluorescent microscopy results shown in FIG. 9D.
L2Bulge 9 was also tested (using activating ligand Theophylline), and the optimal copy number was determined to be 3.

Data set [2] relates to HEK293T cells. The data set is described as follows: Dynamic range / dose-responsiveness to activating ligand, firefly luciferase constructs. It is filed as cell-based. Conditions: for Response to ligand in cell culture (firefly luminescence) / Dynamic Range: HEK293T cells; for Response to ligand in cell culture (firefly luminescence): dual luciferase assay, tetracycline or theophylline; for Dynamic Range: optimal copy number, 0-100 μM activating ligand; for Dynamic range compared with similar riboswitches known in the art: 0-100 μM respective ligand, with target miRNA sequence. How it is done: The riboswitches were evaluated in HEK293T cells to determine optimal copy number (largest dynamic range) and dose-responsiveness to its activating ligand using a dual luciferase assay. The ligand used were tetracycline and theophylline.
For determining dynamic range, constructs containing firefly luciferase containing the optimal copy number of the riboswitch were made. HEK293T cells were plated on day 1, and transfected on day 2 with 1 μg of plasmid DNA. Cells were treated with 0-100 μM of the ligand corresponding to the riboswitch and the luminescence was quantified on day 3 using plate reader.
Experiments as described in Example 2A were also carried out using the newly designed Tet-SLIM and Theo-SLIM switches including target miRNA sequence, as depicted in FIGS. 12A and 13A, respectively.

The subject of the next data set is mouse retina. In words: In vivo GFP fluorescence (cSLO) after intravitreal rAAV2 GFP-riboswitch cassette and ligand gavage. Also noted: species or system C57Bl/6j mice. Conditions: delivered to the mouse retina using a rAAV2 vector. How it is done:
Next, the optimal copy number of each riboswitch was cloned into a rAAV GFP reporter cassette and packaged in an AAV2 capsid. Each GFP-riboswitch cassette was injected intravitreally into C57Bl/6j mice in combination with an AAV2 control vector harboring a non-inducible mCherry reporter gene. Four weeks post-injection, mCherry and GFP fluorescence levels were quantified in vivo using a custom ‘Multiline’ confocal scanning laser ophthalmoscope (cSLO). Mice subsequently received a dose of 1000 mg/kg of its activating ligand (tetracycline, theophylline), and fluorescence levels were quantified 2 and 24 hours post-gavage.

Experimental findings from patent US12286631B2, “Riboswitch modulated gene therapy for retinal diseases” (The Medical College of Wisconsin, Inc., priority 2017, dated 2025) are described below.

B1: K19: Tetracycline ON switch riboswitch, SEQ ID NO: 15 (nucleic acid)
chain: CAAACAAACAAAGGCGCGTCCTGGATTCGTGGTAAAACATACCAGATTTCGATCTGGAGAGGTGAAGAATACGACCACCTGTAGTATCCAGCTGATGAGTCCCAAATAGGACGAAACGCGCTAAACAAACAAAC
Turning to B1, the “Optimal Copy number” value in the data set on HEK293T cells [1] came out at 1. Further, in the data set with HEK293T cells [2], the “Response to ligand in cell culture (firefly luminescence)” value (shortened to “Response to ligand in cell culture”) is “responded to a ligand” and the “Dynamic Range” value is on record as 1.5-fold. The “Response to ligand in vivo” value with mouse retina is listed as “responded to a ligand”.

B2: L2Bulge18tc: Tetracycline ON switch riboswitch, SEQ ID NO: 12 (nucleic acid)
chain: CTCGAGGCGATCGCAAACAAACAAAGCTGTCACCGGATGTGCTTTCCGGTCTGATGAGTCCGTTGTCCAAAACATACCAGATTTCGATCTGGAGAGGTGAAGAATTCGACCACCTGGACGAGGACGGAGGACGAAACAGCAAAAAGAAAAATAAAAATTAATTAATCTTGGGCCC
Turning to B2, in the data set with HEK293T cells [1], the “Optimal Copy number” value worked out at 3. Also, in the data set on HEK293T cells [2], the “Response to ligand in cell culture” value was “responded to a ligand” and the “Dynamic Range” value was 4.3-fold. The “Response to ligand in vivo” value with mouse retina is “responded to a ligand”.

B3: Theo6HDV: Theophylline OFF switch riboswitch, SEQ ID NO: 13 (nucleic acid)
chain: ATGGCCGGCATGGTCCCAGCCTCCTCGCTGGCGCCGGCTGGGCAACCACATACCAGCCGAAAGGCCCTTGGCAGGTGGGCGAATGGGACGCACAAATCTCTCTAGCTTCCCAGAGAGAAGCGAGAGAAAAGTGGCTCTC
As to B3, in the data set with HEK293T cells [2], the “Response to ligand in cell culture” value is recorded as “responded to a ligand”. Further, the “Response to ligand in vivo” value in the data set with mouse retina is on record as “responded to a ligand”.

B4: L2Bulge9: Theophylline-responsive riboswitch, SEQ ID NO: 11 (nucleic acid)
chain: CTCGAGGCGATCGCAAACAAACAAAGCTGTCACCGGATGTGCTTTCCGGTCTGATGAGTCCGTTGTCCAATACCAGCATCGTCTTGATGCCCTTGGCAGTGGATGGGGACGGAGGACGAAACAGCAAAAAGAAAAATAAAAATTTTTTTTTTAATTAATCTTGGGCCC
In the case of B4, the “Optimal Copy number” value with HEK293T cells [1] is 3. In the data set on HEK293T cells [2], the “Response to ligand in cell culture” value is on record as “responded to a ligand” and the “Dynamic Range” value is 1.7-fold. In the data set with mouse retina, the “Response to ligand in vivo” value is “responded to a ligand”.

B5: GuaM8HDV: Guanine OFF switch riboswitch, SEQ ID NO: 14 (nucleic acid)
chain: ATGGCCGGCATGGTCCCAGCCTCCTCGCTGGCGCCGGCTGGGCAATGCTATAATCGCGTGGATATGGCACGCAAGTTTCTACCGGGCACCGTAAATGTCCGACTAGTAGCGAATGGGACGCACAAATCTCTCTAG
As to B5, the “Response to ligand in cell culture” value in the data set on HEK293T cells [2] is recorded as “responded to a ligand”. The “Response to ligand in vivo” value with mouse retina is listed as “responded to a ligand”.

B6: Theo-SLIM: theophylline-responsive self-targeting ligand inactivating microRNA (SLIM) switch, SEQ ID NO: 1 (nucleic acid)
chain: CGTATCAGCAGGTCCCATAAGCTTTCGACAATTAACGAGTGTGTACTCGTTCTATCATCTCACAGTTAAAGTCGGGAGAATAGGAGCCGCACGGGTCCTGATACCAGCGTGAGCGGAGAGAATCTTCTTTCTGTCTATTAGTGAAGCCACAGATGTAATAGACAGAAAGAAGATTCTCTCCGCCTACGCCCTTGGCAGCACCGTACGGTTCGATC
On to B6, for which the “Optimal Copy number” value with HEK293T cells [1] was found to be 1. Besides, in the data set on HEK293T cells [2], the “Dynamic range compared with similar riboswitches known in the art” value is reported as “increased dynamic range” and the “Dynamic Range” value is 10.9-fold.

B7: Tet-SLIM: tetracycline-responsive self-targeting ligand inactivating microRNA (SLIM) switch, SEQ ID NO: 17 (nucleic acid)
chain: CTAGCACGGGTCCCTAAAACATACCGTGAGCGCGAAAGCGCCCCCATTTTGAGTTAGTGAAGCCACAGATGTAACTCAAAATGGGGGCGCTTTCCCGCCTACGGAGAGGTGAAGAATACGACCACCTAGAAGCTTATTGGTACATGATAACACCCCAAAATCGAAGCACTTCAAAAACACCCCAAAATCGAAGCACTTCAAAAACACCCCAAAATCGAAGCACTTCAAAAACACCCCAAAATCGAAGCACTTCAGTCTCAGGCATCGTACGATGTCGACCTGCAGG
B7: the “Optimal Copy number” value in the data set on HEK293T cells [1] was 1. In the data set with HEK293T cells [2], the “Dynamic range compared with similar riboswitches known in the art” value is given as “increased dynamic range” and the “Dynamic Range” value is listed as 2.3-fold.
